{"source": "paper PMC8834348", "origin": "cited, not measured here", "key": {"[1]": {"target": "flotillin 1 (Homo sapiens) (UniProt O75955)", "sequence (O75955 whole entry)": "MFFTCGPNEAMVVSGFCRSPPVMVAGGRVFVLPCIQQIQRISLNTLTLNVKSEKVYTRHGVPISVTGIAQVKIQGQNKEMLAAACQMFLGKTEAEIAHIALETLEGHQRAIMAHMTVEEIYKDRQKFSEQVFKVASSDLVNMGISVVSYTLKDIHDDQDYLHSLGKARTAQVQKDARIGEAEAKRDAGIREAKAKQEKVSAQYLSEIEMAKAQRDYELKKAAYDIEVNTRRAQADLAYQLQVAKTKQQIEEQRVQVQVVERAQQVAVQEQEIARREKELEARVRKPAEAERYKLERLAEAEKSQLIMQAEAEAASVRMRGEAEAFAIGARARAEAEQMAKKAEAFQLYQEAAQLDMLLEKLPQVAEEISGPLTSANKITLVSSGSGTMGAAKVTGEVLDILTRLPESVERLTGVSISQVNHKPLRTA"}, "[2]": {"target": "flotillin 2 (Homo sapiens) (UniProt Q14254)", "sequence (Q14254 2-428)": "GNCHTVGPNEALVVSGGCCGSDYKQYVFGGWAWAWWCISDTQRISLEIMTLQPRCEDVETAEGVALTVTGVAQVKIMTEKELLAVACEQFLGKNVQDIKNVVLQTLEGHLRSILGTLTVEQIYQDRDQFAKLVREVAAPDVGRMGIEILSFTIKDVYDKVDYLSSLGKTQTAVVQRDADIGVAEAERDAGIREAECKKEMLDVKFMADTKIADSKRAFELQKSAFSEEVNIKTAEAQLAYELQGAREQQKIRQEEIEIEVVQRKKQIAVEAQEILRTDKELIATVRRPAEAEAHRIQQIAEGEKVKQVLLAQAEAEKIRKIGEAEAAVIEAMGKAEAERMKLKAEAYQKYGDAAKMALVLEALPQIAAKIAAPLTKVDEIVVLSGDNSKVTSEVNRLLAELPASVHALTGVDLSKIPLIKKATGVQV"}}, "note": "pKd: −log10 of the molar value.", "data": [{"substance": "MPP1 D5 domain (from UniProt Q00013)", "values": [{"measurement": "pKd", "setting": "[1]", "result": 7.52}, {"measurement": "pKd", "setting": "[2]", "result": 7.52}]}]}
